Test results published in PMC9637154 (Communications Biology, 2022).
Where “and” joins values, the source holds several entries; their conditions need not be identical. Identical values can stand only once.

Tests used:
Assay in all cases: BLI
Settings in all cases: both partners purified
[1] = biological target: T1, CoV2 Parental S-RBD fused with human Fc (SARS-CoV-2, UniProt P0DTC2)
T1 construct: also called Parental RBD; RBD-Fc

[2] = biological target: T2, CoV2 Parental S-RBD fused with human Fc (SARS-CoV-2, UniProt P0DTC2)
T2 construct: also called Parental RBD; RBD-Fc (Parental)

[3] = biological target: T3, CoV2 Omicron S-RBD with human Fc (SARS-CoV-2, UniProt P0DTC2)
T3 construct: also called Omicron RBD; RBD-Fc (Omicron)

B1: shACE2 N90A/N322A double glycan deletant (domain or fragment)
chain: STIEEQAKTFLDKFNHEAEDLFYQSSLASWNYNTNITEENVQNMNNAGDKWSAFLKEQSTLAQMYPLQEIQALTVKLQLQALQQNGSSVLSEDKSKRLNTILNTMSTIYSTGKVCNPDNPQECLLLEPGLNEIMANSLDYNERLWAWESWRSEVGKQLRPLYEEYVVLKNEMARANHYEDYGDYWRGDYEVNGVDGYDYSRGQLIEDVEHTFEEIKPLYEHLHAYVRAKLMNAYPSYISPIGCLPAHLLGDMWGRFWTNLYSLTVPFGQKPNIDVTDAMVDQAWDAQRIFKEAEKFFVSVGLPAMTQGFWENSMLTDPGNVQKAVCHPTAWDLGKGDFRILMCTKVTMDDFLTAHHEMGHIQYDMAYAAQPFLLRNGANEGFHEAVGEIMSLSAATPKHLKSIGLLSPDFQEDNETEINFLLKQALTIVGTLPFTYMLEKWRWMVFKGEIPKDQWMKKWWEMKREIVGVVEPVPHDETYCDPASLFHVSNDYSFIRYYTRTLYQFQFQEALCQAAKHEGPLHKCDISNSTEAGQKLFNMLRLGKSEPWTLALENVVGAKNMNVRPLLNYFEPLFTWLKDQNKNSFVGWSTDWSPYADQSIK
notes: also called N90A/N322A double deletant
Work on B1 yielded a Kd [1] of 115 nM.

B2: soluble hACE2 N53S/N90S/N322S (receptor)
chain: STIEEQAKTFLDKFNHEAEDLFYQSSLASWNYNTSITEENVQNMNNAGDKWSAFLKEQSTLAQMYPLQEIQSLTVKLQLQALQQNGSSVLSEDKSKRLNTILNTMSTIYSTGKVCNPDNPQECLLLEPGLNEIMANSLDYNERLWAWESWRSEVGKQLRPLYEEYVVLKNEMARANHYEDYGDYWRGDYEVNGVDGYDYSRGQLIEDVEHTFEEIKPLYEHLHAYVRAKLMNAYPSYISPIGCLPAHLLGDMWGRFWTNLYSLTVPFGQKPNIDVTDAMVDQAWDAQRIFKEAEKFFVSVGLPSMTQGFWENSMLTDPGNVQKAVCHPTAWDLGKGDFRILMCTKVTMDDFLTAHHEMGHIQYDMAYAAQPFLLRNGANEGFHEAVGEIMSLSAATPKHLKSIGLLSPDFQEDNETEINFLLKQALTIVGTLPFTYMLEKWRWMVFKGEIPKDQWMKKWWEMKREIVGVVEPVPHDETYCDPASLFHVSNDYSFIRYYTRTLYQFQFQEALCQAAKHEGPLHKCDISNSTEAGQKLFNMLRLGKSEPWTLALENVVGAKNMNVRPLLNYFEPLFTWLKDQNKNSFVGWSTDWSPYADQSIK
notes: also called triple glycan deletant
B2 was tested, and the Kd [2] was 178 nM and 219 nM and 198 nM and the Kd [3] was 64.7 nM and 72.7 nM and 68.7 nM.

B3: soluble hACE2 N53A/N90A (receptor)
chain: STIEEQAKTFLDKFNHEAEDLFYQSSLASWNYNTAITEENVQNMNNAGDKWSAFLKEQSTLAQMYPLQEIQALTVKLQLQALQQNGSSVLSEDKSKRLNTILNTMSTIYSTGKVCNPDNPQECLLLEPGLNEIMANSLDYNERLWAWESWRSEVGKQLRPLYEEYVVLKNEMARANHYEDYGDYWRGDYEVNGVDGYDYSRGQLIEDVEHTFEEIKPLYEHLHAYVRAKLMNAYPSYISPIGCLPAHLLGDMWGRFWTNLYSLTVPFGQKPNIDVTDAMVDQAWDAQRIFKEAEKFFVSVGLPNMTQGFWENSMLTDPGNVQKAVCHPTAWDLGKGDFRILMCTKVTMDDFLTAHHEMGHIQYDMAYAAQPFLLRNGANEGFHEAVGEIMSLSAATPKHLKSIGLLSPDFQEDNETEINFLLKQALTIVGTLPFTYMLEKWRWMVFKGEIPKDQWMKKWWEMKREIVGVVEPVPHDETYCDPASLFHVSNDYSFIRYYTRTLYQFQFQEALCQAAKHEGPLHKCDISNSTEAGQKLFNMLRLGKSEPWTLALENVVGAKNMNVRPLLNYFEPLFTWLKDQNKNSFVGWSTDWSPYADQSIK
notes: also called double glycan deletant
B3 was tested, and the Kd [2] was 220 nM and 246 nM and 233 nM and the Kd [3] was 83.2 nM and 116 nM and 99.5 nM.

B4: soluble hACE2 N90S/N322S (receptor)
chain: STIEEQAKTFLDKFNHEAEDLFYQSSLASWNYNTNITEENVQNMNNAGDKWSAFLKEQSTLAQMYPLQEIQSLTVKLQLQALQQNGSSVLSEDKSKRLNTILNTMSTIYSTGKVCNPDNPQECLLLEPGLNEIMANSLDYNERLWAWESWRSEVGKQLRPLYEEYVVLKNEMARANHYEDYGDYWRGDYEVNGVDGYDYSRGQLIEDVEHTFEEIKPLYEHLHAYVRAKLMNAYPSYISPIGCLPAHLLGDMWGRFWTNLYSLTVPFGQKPNIDVTDAMVDQAWDAQRIFKEAEKFFVSVGLPSMTQGFWENSMLTDPGNVQKAVCHPTAWDLGKGDFRILMCTKVTMDDFLTAHHEMGHIQYDMAYAAQPFLLRNGANEGFHEAVGEIMSLSAATPKHLKSIGLLSPDFQEDNETEINFLLKQALTIVGTLPFTYMLEKWRWMVFKGEIPKDQWMKKWWEMKREIVGVVEPVPHDETYCDPASLFHVSNDYSFIRYYTRTLYQFQFQEALCQAAKHEGPLHKCDISNSTEAGQKLFNMLRLGKSEPWTLALENVVGAKNMNVRPLLNYFEPLFTWLKDQNKNSFVGWSTDWSPYADQSIK
notes: as for B3
B4 was tested, and the Kd [2] was 123 nM and 126 nM and 125 nM and the Kd [3] was 38.2 nM and 38.5 nM and 38.4 nM.

B5: soluble hACE2 N53A/N90A/N322A (receptor)
chain: STIEEQAKTFLDKFNHEAEDLFYQSSLASWNYNTAITEENVQNMNNAGDKWSAFLKEQSTLAQMYPLQEIQALTVKLQLQALQQNGSSVLSEDKSKRLNTILNTMSTIYSTGKVCNPDNPQECLLLEPGLNEIMANSLDYNERLWAWESWRSEVGKQLRPLYEEYVVLKNEMARANHYEDYGDYWRGDYEVNGVDGYDYSRGQLIEDVEHTFEEIKPLYEHLHAYVRAKLMNAYPSYISPIGCLPAHLLGDMWGRFWTNLYSLTVPFGQKPNIDVTDAMVDQAWDAQRIFKEAEKFFVSVGLPAMTQGFWENSMLTDPGNVQKAVCHPTAWDLGKGDFRILMCTKVTMDDFLTAHHEMGHIQYDMAYAAQPFLLRNGANEGFHEAVGEIMSLSAATPKHLKSIGLLSPDFQEDNETEINFLLKQALTIVGTLPFTYMLEKWRWMVFKGEIPKDQWMKKWWEMKREIVGVVEPVPHDETYCDPASLFHVSNDYSFIRYYTRTLYQFQFQEALCQAAKHEGPLHKCDISNSTEAGQKLFNMLRLGKSEPWTLALENVVGAKNMNVRPLLNYFEPLFTWLKDQNKNSFVGWSTDWSPYADQSIK
notes: also called N53A/N90A/N322A triple deletant
For B5, the Kd [2] was 262 nM and 246 nM and the Kd [3] was 67.1 nM and 75.5 nM and 71.3 nM.

B6: soluble hACE2 N90A/N322A (receptor)
chain: STIEEQAKTFLDKFNHEAEDLFYQSSLASWNYNTNITEENVQNMNNAGDKWSAFLKEQSTLAQMYPLQEIQALTVKLQLQALQQNGSSVLSEDKSKRLNTILNTMSTIYSTGKVCNPDNPQECLLLEPGLNEIMANSLDYNERLWAWESWRSEVGKQLRPLYEEYVVLKNEMARANHYEDYGDYWRGDYEVNGVDGYDYSRGQLIEDVEHTFEEIKPLYEHLHAYVRAKLMNAYPSYISPIGCLPAHLLGDMWGRFWTNLYSLTVPFGQKPNIDVTDAMVDQAWDAQRIFKEAEKFFVSVGLPAMTQGFWENSMLTDPGNVQKAVCHPTAWDLGKGDFRILMCTKVTMDDFLTAHHEMGHIQYDMAYAAQPFLLRNGANEGFHEAVGEIMSLSAATPKHLKSIGLLSPDFQEDNETEINFLLKQALTIVGTLPFTYMLEKWRWMVFKGEIPKDQWMKKWWEMKREIVGVVEPVPHDETYCDPASLFHVSNDYSFIRYYTRTLYQFQFQEALCQAAKHEGPLHKCDISNSTEAGQKLFNMLRLGKSEPWTLALENVVGAKNMNVRPLLNYFEPLFTWLKDQNKNSFVGWSTDWSPYADQSIK
notes: as for B1
In the case of B6, the Kd [2] is reported as 127 nM and 103 nM and the Kd [3] is reported as 36.5 nM and 36 nM and 36.3 nM.

B7: soluble hACE2 N53S/N90S (receptor)
chain: STIEEQAKTFLDKFNHEAEDLFYQSSLASWNYNTSITEENVQNMNNAGDKWSAFLKEQSTLAQMYPLQEIQSLTVKLQLQALQQNGSSVLSEDKSKRLNTILNTMSTIYSTGKVCNPDNPQECLLLEPGLNEIMANSLDYNERLWAWESWRSEVGKQLRPLYEEYVVLKNEMARANHYEDYGDYWRGDYEVNGVDGYDYSRGQLIEDVEHTFEEIKPLYEHLHAYVRAKLMNAYPSYISPIGCLPAHLLGDMWGRFWTNLYSLTVPFGQKPNIDVTDAMVDQAWDAQRIFKEAEKFFVSVGLPNMTQGFWENSMLTDPGNVQKAVCHPTAWDLGKGDFRILMCTKVTMDDFLTAHHEMGHIQYDMAYAAQPFLLRNGANEGFHEAVGEIMSLSAATPKHLKSIGLLSPDFQEDNETEINFLLKQALTIVGTLPFTYMLEKWRWMVFKGEIPKDQWMKKWWEMKREIVGVVEPVPHDETYCDPASLFHVSNDYSFIRYYTRTLYQFQFQEALCQAAKHEGPLHKCDISNSTEAGQKLFNMLRLGKSEPWTLALENVVGAKNMNVRPLLNYFEPLFTWLKDQNKNSFVGWSTDWSPYADQSIK
notes: as for B3
With B7 the Kd [2] was 223 nM and 226 nM and 224 nM and the Kd [3] was 101 nM and 123 nM and 112 nM.

B8: soluble hACE2 N53A/N322A (receptor)
chain: STIEEQAKTFLDKFNHEAEDLFYQSSLASWNYNTAITEENVQNMNNAGDKWSAFLKEQSTLAQMYPLQEIQNLTVKLQLQALQQNGSSVLSEDKSKRLNTILNTMSTIYSTGKVCNPDNPQECLLLEPGLNEIMANSLDYNERLWAWESWRSEVGKQLRPLYEEYVVLKNEMARANHYEDYGDYWRGDYEVNGVDGYDYSRGQLIEDVEHTFEEIKPLYEHLHAYVRAKLMNAYPSYISPIGCLPAHLLGDMWGRFWTNLYSLTVPFGQKPNIDVTDAMVDQAWDAQRIFKEAEKFFVSVGLPAMTQGFWENSMLTDPGNVQKAVCHPTAWDLGKGDFRILMCTKVTMDDFLTAHHEMGHIQYDMAYAAQPFLLRNGANEGFHEAVGEIMSLSAATPKHLKSIGLLSPDFQEDNETEINFLLKQALTIVGTLPFTYMLEKWRWMVFKGEIPKDQWMKKWWEMKREIVGVVEPVPHDETYCDPASLFHVSNDYSFIRYYTRTLYQFQFQEALCQAAKHEGPLHKCDISNSTEAGQKLFNMLRLGKSEPWTLALENVVGAKNMNVRPLLNYFEPLFTWLKDQNKNSFVGWSTDWSPYADQSIK
notes: as for B3
B8 was tested, and the Kd [2] was 411 nM and 395 nM and 403 nM and the Kd [3] was 164 nM and 139 nM and 151 nM.

B9: soluble hACE2 N53S/N322S (receptor)
chain: STIEEQAKTFLDKFNHEAEDLFYQSSLASWNYNTSITEENVQNMNNAGDKWSAFLKEQSTLAQMYPLQEIQNLTVKLQLQALQQNGSSVLSEDKSKRLNTILNTMSTIYSTGKVCNPDNPQECLLLEPGLNEIMANSLDYNERLWAWESWRSEVGKQLRPLYEEYVVLKNEMARANHYEDYGDYWRGDYEVNGVDGYDYSRGQLIEDVEHTFEEIKPLYEHLHAYVRAKLMNAYPSYISPIGCLPAHLLGDMWGRFWTNLYSLTVPFGQKPNIDVTDAMVDQAWDAQRIFKEAEKFFVSVGLPSMTQGFWENSMLTDPGNVQKAVCHPTAWDLGKGDFRILMCTKVTMDDFLTAHHEMGHIQYDMAYAAQPFLLRNGANEGFHEAVGEIMSLSAATPKHLKSIGLLSPDFQEDNETEINFLLKQALTIVGTLPFTYMLEKWRWMVFKGEIPKDQWMKKWWEMKREIVGVVEPVPHDETYCDPASLFHVSNDYSFIRYYTRTLYQFQFQEALCQAAKHEGPLHKCDISNSTEAGQKLFNMLRLGKSEPWTLALENVVGAKNMNVRPLLNYFEPLFTWLKDQNKNSFVGWSTDWSPYADQSIK
notes: as for B3
With B9 the Kd [2] was 438 nM and 457 nM and 448 nM and the Kd [3] was 163 nM and 162 nM (2×).
